Experimental findings from patent US20150110776A1 (PROTHENA BIOSCIENCES, published 2015) are described below.

Changes are numbered by the printed parent chain.

The term Kd denotes the free concentration of one partner at which half of the binding sites on the other are occupied at equilibrium, for simple one-to-one binding. The term koff denotes a measure of how fast the partners let go of each other. As usually defined, the kon is the second-order rate constant of association.

B1: murine monoclonal antibody 3H6 (antibody, V domains shown)
VH: EVKLEESGGGLVQPGGSMKLSCVASGFTFSNYWMYWVRQSPEKGLEWVAEIRLKSDNYATHYAESVKGRFTISRDDSKSSVYLQMNSLRAEDTGIYYCTIFDYWGQGTTVTVSS
VL: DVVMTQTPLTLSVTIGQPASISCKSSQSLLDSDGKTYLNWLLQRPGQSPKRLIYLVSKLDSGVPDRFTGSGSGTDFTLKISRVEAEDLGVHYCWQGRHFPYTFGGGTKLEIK
notes: also called m3H6; mouse 3H6
B2: chimeric 3H6 antibody (antibody, V domains shown)
VH: B1 VH
VL: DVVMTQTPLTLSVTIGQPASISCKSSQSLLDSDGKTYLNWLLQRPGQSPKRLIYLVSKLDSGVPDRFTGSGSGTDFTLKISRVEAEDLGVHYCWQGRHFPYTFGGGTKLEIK
notes: also called ch3H6
B3: humanized 3H6 antibody version H2L1 (antibody, V domains shown)
VH: EVQLVESGGGLVQPGGSLKLSCAASGFTFSNYWMYWVRQAPGKGLEWVGEIRLKSDNYATHYAESVKGRFTISRDDSKNTAYLQMDSLKTEDTAVYYCTTFDYWGQGTLVTVSS
VL: DVVMTQSPLSLPVTLGQPASISCKSSQSLLDSDGKTYLNWLQQRPGQSPKRLIYLVSKLDSGVPDRFSGSGSGTDFTLKISRVEAEDVGVHYCWQGRHFPYTFGQGTKLEIK
notes: also called h3H6-H2L1
B4: humanized 3H6 antibody version H2L2 (antibody, V domains shown)
VH: B3 VH
VL: B3 VL with H91Y
notes: also called h3H6-H2L2
B5: humanized 3H6 antibody version H3L2 (antibody, V domains shown)
VH: B3 VH with T100I
VL: B3 VL with H91Y
notes: also called h3H6-H3L2
B6: humanized 3H6 antibody version H1L1 (antibody, V domains shown)
VH: B3 VH with A81V, T100I
VL: B3 VL
notes: it was captured on an anti-human chip; also called h3H6-H1L1

For the first assay, the target named is T1, hIAPP peptide LSSTNVGSNTY, amino acids 27-37 of IAPP (human).
T1 peptide: LSSTNVGSNTY
Description: hybridoma epitope mapping against shorter peptides. The method, then:
(§1) LA28-3H6 was originally a mouse hybridoma, producing an anti-hIAPP antibody of isotype Gamma 2a k, which resulted from a fusion of spleen cells from a mouse injected with hIAPP coupled to KLH via gluteraldehyde. The mouse was immunized with 25 μg of the conjugate in RIBI adjuvant on days 0, 7, 14, 21, 39, 46, 53, 60, 77, 84, and 91. […] On day 97 the mouse was injected with the IAPP/KLH conjugate both intraperitoneally and intravenously. Three days later the spleen was removed and a cell suspension was generated and frozen. Four months later the suspension was thawed and fused to SP2/0 cells. The fusion was screened against hIAPP, then epitope mapped against shorter peptides and found to react with […] (SEQ ID NO: 4), which corresponds to amino acids 27-37 of IAPP.
B1: the binding result is reported as “binds”.

A further assay deals with T2, rat IAPP (rat, UniProt P12969 38-74).
T2 construct: Used as the soluble analyte in the Biacore assay in place of human IAPP; also called rat islet amyloid polypeptide
T2 peptide (looked up): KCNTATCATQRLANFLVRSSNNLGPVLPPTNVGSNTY
Put plainly: SPR (Biacore), antibody captured on anti-human CM5 chip, rat IAPP as analyte, global 1:1 fit. The procedure:
The affinity of various combinations of 3H6 humanized heavy chains and humanized light chain proteins for IAPP was analyzed on a Biacore instrument. Biacore analysis was performed by preparing an anti-human CM5 chip following the protocol provided in the kit. The 3H6 antibody was captured such that the maximum binding of rat IAPP would not exceed 20-30 RU. […] Data was blank subtracted to both an irrelevant sensor not containing 3H6 and 0 IAPP concentration to account for the dissociation of 3H6 from the anti-human capture. Data was then analyzed using a global 1:1 fit.
In general terms: In SPR one partner is held on a chip, and binding of the other changes the refractive index at the surface.
In the case of B1, the Kd was 18.6 nM, the koff is 0.00152 s⁻¹ and the association rate constant (kon) turned out to be 81800 M⁻¹ s⁻¹.

With B2, the dissociation constant (Kd) was 13.7 nM, the koff worked out at 0.00147 s⁻¹ and the association rate constant (kon) is 107000 M⁻¹ s⁻¹.

For the molecule B3, the Kd was found to be 34.5 nM, the koff was found to be 0.00294 s⁻¹ and the kon came out at 85200 M⁻¹ s⁻¹.

B4: the equilibrium dissociation constant (Kd) came out at 85.4 nM, the koff was found to be 0.00646 s⁻¹ and the kon worked out at 75700 M⁻¹ s⁻¹.

Regarding B5, the equilibrium dissociation constant (Kd) was determined as 33.2 nM, the off-rate constant (koff) came out at 0.00625 s⁻¹ and the kon was determined as 188000 M⁻¹ s⁻¹.

Consider B6, for which the Kd came to 20.4 nM, the off-rate constant (koff) turned out to be 0.00231 s⁻¹ and the kon is 113000 M⁻¹ s⁻¹.

For a further assay, the target named is T3, human islet-amyloid polypeptide (IAPP) (human).
T3 construct: also called hIAPP; human IAPP
T3 peptide: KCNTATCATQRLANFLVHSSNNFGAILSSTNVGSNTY
Put plainly: hybridoma screen against hIAPP. The method, then: as §1
Regarding B1, the binding result is “binds”.
